Measured values: IntAct's records for PubMed 24525236

Biological target: flt3_human FLT3 (UniProt P36888)
Sequence (P36888 whole entry): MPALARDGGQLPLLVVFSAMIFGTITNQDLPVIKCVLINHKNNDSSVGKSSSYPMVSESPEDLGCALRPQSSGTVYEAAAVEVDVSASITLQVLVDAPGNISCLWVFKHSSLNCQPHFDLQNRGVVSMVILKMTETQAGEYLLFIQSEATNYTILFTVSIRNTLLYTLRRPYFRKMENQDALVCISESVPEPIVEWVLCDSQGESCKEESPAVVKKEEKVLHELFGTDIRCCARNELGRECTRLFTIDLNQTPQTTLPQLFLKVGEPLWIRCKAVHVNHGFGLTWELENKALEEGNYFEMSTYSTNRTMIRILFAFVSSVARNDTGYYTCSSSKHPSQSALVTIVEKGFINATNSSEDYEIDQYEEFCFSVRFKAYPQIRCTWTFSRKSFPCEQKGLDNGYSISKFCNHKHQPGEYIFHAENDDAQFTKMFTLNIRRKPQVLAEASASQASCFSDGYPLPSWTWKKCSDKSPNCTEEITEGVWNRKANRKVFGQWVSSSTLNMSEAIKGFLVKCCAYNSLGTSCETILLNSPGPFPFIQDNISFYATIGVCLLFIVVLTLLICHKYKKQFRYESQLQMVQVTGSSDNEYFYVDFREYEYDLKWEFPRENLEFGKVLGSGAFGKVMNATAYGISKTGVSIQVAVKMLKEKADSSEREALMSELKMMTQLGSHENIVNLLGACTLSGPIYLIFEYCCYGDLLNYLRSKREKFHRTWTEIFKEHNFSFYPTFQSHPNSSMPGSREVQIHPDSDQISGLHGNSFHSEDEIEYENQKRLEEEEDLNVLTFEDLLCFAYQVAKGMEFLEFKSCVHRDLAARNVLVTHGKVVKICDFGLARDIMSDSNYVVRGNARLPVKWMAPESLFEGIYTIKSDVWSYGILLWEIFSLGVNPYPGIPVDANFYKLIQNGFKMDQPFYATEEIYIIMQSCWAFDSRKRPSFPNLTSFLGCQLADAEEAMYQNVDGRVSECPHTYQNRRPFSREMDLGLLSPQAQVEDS

effect of a mutation on the interaction: decreasing interaction
Substance: Tyrosine-protein kinase SYK (Homo sapiens) (from UniProt P43405) R195G;R197L
